Experimental data taken from patent US20070178098A1 (Merck KGaA, published 2007).

T1: Fc-IL6 (human IL-6; mouse Fc)
T1 construct: also called Mature Fc-IL6
T1 chain: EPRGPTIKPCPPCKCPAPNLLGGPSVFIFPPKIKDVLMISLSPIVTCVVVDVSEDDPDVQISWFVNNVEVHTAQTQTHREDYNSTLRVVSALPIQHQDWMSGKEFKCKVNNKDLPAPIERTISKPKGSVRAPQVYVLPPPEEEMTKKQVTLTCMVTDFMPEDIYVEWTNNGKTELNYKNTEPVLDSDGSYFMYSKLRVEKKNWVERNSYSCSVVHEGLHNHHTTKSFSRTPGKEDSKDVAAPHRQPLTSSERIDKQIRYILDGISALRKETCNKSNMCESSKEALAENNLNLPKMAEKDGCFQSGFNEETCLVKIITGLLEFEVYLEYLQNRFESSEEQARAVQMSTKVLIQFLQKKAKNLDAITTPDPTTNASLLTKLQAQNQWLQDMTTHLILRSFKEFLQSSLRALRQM

T2: human IL-6Ralpha (human, UniProt P08887 20-358, limits assumed)
T2 construct: also called IL-6Ralpha alone
T2 sequence (looked up): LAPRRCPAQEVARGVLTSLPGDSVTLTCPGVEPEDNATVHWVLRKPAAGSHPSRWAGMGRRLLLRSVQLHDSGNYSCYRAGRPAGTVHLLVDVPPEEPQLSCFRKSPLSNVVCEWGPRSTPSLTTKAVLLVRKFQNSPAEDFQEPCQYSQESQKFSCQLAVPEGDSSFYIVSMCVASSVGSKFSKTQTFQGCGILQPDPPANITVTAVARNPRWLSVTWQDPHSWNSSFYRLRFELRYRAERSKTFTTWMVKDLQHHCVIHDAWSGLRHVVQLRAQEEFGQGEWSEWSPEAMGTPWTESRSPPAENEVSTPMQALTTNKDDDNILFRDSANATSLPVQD


Columns and labels:
Fc-IL6 = target: T1, Fc-IL6; assay: binding to immobilized Fc-IL6 (screen of paragraph 73)
human IL-6 [1] = target: T3, human IL-6 (human, UniProt P05231 30-212); assay: Biacore, antibody immobilized on chip, IL-6 passed over
T3 construct: The Biacore text says only 'IL-6 protein'; also called interleukin-6; IL-6 protein
Protocol: The antibodies were immobilized on a chip; IL-6 protein was passed over the chip, and on-rates and off-rates were measured.

human IL-6Ralpha = target: T2, human IL-6Ralpha; assay: plate binding assay read as OD450, antibody titrated on IL6Ralpha alone
Fc-IL6Ralpha-IL6 [2] = target: T4, Fc-IL6Ralpha-IL6 (human IL-6Ralpha and IL-6; mouse Fc); assay: plate binding assay read as OD450, antibody titrated on Fc-IL6Ralpha-IL6
T4 construct: Fusion of a mouse IgG gamma2a Fc, the extracellular domains of human IL-6Ralpha and human IL-6; also called Fc-IL6Ralpha-IL6 fusion protein; muFc-IL6Ralpha-IL6

human IL-6 [3] = target: T3, human IL-6; assay: plate binding assay read as OD450, antibody titrated on IL6 (form of the coated IL-6 not given for this figure)
Fc-IL6Ralpha-IL6 [4] = target: T4, Fc-IL6Ralpha-IL6; assay: competition assay: antibody titrated, inhibition of the binding of Fc-IL6Ralpha-IL6 to gp130-Fc; half of the antibody's own maximal inhibition
Protocol: To further characterize the antibodies that recognize IL-6, the following competition tests were performed. First, the ability of the monoclonal antibodies to inhibit the interaction between Fc-IL6Ralpha-IL6 and gp130-Fc was tested. The inhibition assays were performed based on the methods described by Scheller et al. J. Immuno. Methods, 291:93-100 (2004), the teachings of which are hereby incorporated by reference. […] Second, inhibition of the interaction between Fc-IL6 and Fc-IL6Ralpha by the antibodies was tested.

Fc-IL6Ralpha-IL6 [5] = target: T4, Fc-IL6Ralpha-IL6; assay: cell-based or functional assay

Binder | binding result (Fc-IL6) | Kd (human IL-6 [1]) [nM] | koff (human IL-6 [1]) [s⁻¹] | kon (human IL-6 [1]) [M⁻¹ s⁻¹] | binding result (human IL-6Ralpha) | EC50 (read off the curve) (Fc-IL6Ralpha-IL6 [2]) [ng/mL] | EC50 (read off the curve) (human IL-6 [3]) [ng/mL] | IC50 (read off the curve) (Fc-IL6Ralpha-IL6 [4]) [ng/mL] | haptoglobin level in mice given muFc-IL6Ralpha-IL6, relative to the positive control group at 24 hours (Fc-IL6Ralpha-IL6 [5]) [%]
Mab#476 (antibody, V domains shown, Mouse IgG monoclonal from a hybridoma; V regions were amplified with primers specific for mouse IgG gamma1 VH and Vk; also called antibody 476) VH: EVKLEESGGGLVQPGGSMKLSCAASGFTFSDAWMDWVRQSPEKGLEWVAEIRSKANNHATYYAESVKGRFTISRDDSKSSVYLQMNSLRAEDTGIYYCTTPTLYGAMDYWGQGTSVTVSA VL: not shown | binds | 0.047 to 0.106 | 0.00012 to 0.00026 | 2.5e+06 to 2.6e+06 | no binding (tested: 1 ug/ml) | ~6 | ~5 | ~200 | –
Mab#195 (antibody, V domains shown, Mouse IgG monoclonal from a hybridoma; V regions were amplified with primers specific for mouse IgG gamma1 VH and Vk; also called antibody 195) VH: EVKLEESGGGLVQPGGSMKLSCVASGFTFSNYWMNWVRQSPEKGLEWVAEIRLKSNNYATHYAESVKGRFTISRDDSKSSVYLQMNNLRAEDTGIYYCTREDYYGYPDYWGQGTTLTVSS VL: not shown | binds | 2 | 0.0048 | 2.4e+06 | no binding (tested: 1 ug/ml) | ~4 | ~4 | ~100 | –
Mab#309 (antibody, V domains shown, Mouse IgG monoclonal from a hybridoma; V regions were amplified with primers specific for mouse IgG gamma1 VH and Vk; also called antibody 309) VH: EVKLEESGGGLVQPGGSMKLSCVASGFTFSNYWMNWVRQSPEKGLEWVAEIRLKSNKGATHYAESVKGRFTISRDDSKSSVYLQMNNLRAEDTGIYYCASLLYDGYLHWGQGTLVTVSA VL: not shown | binds | 0.135 | 0.00011 | 800000 | no binding (tested: 1 ug/ml) | ~3 | ~3 | ~200 | –
Mab#471 (antibody, V domains shown, Mouse IgG monoclonal from a hybridoma; V regions were amplified with primers specific for mouse IgG gamma1 VH and Vk) VH: EVKFEESGGGLVQPGGSMKLSCVASGFSFSNYWMNWVRQSPEKGLEWVAEIRLTSNKQAIYYAESVKGRFTISRDDSKSSVYLQMNNLRAEDTGIYYCASLFYDGYLHWGQGTLVTVSA VL: not shown | binds | 0.0075 | 1.4e-05 | 1.8e+06 | no binding (tested: 1 ug/ml) | ~3 | ~5 | ~200 | ~30
